The target of assay [1] is MafR_(V583), untagged MafR protein from Enterococcus faecalis V583 (Enterococcus faecalis V583). The experiment in a line: AUC.
The target is the same in assay [2]. The experiment in a line: SEC. (SEC sorts molecules by how far they enter the pores of the column.)

Usually stoichiometry N stands for the number of molecules, sites or subunits per partner or assembly. For “MafR_(V583), untagged MafR protein from Enterococcus faecalis V583 (natural protein)”, the stoichiometry N in assay [1] and in assay [2] was 2 throughout.

These data come from publication PMC5947639.
